Patent US12356911B2, “Group of UDP-glycosyltransferase for catalyzing carbohydrate chain elongation and application thereof” (GSYNBIOT (SHANGHAI) CO., LTD, priority 2017, dated 2025)

Assay: In vitro transglycosylation at C-6, Rg1 as glycosyl acceptor, UDP-xylose as donor
Format: biochemical
Conditions: crude enzyme (E. coli lysate supernatant); TLC and HPLC, FIG. 7-9

B1: GT29-11: Ginseng UDP-glycosyltransferase, 446 amino acids, SEQ ID NO: 20 (protein)
chain: MDNQKGRISIVMLPFLAHGHISPFFELAKHLSKRNCNIFLCSTPINLSSIKNRISDKDSSASIKLVELHLPSSPDLPPHYHTTNGLPSHLMVPLINAFETAGPTFSEILKTLNPDLLIYDFNPSWAPEIASSHNIPAVYFLTTAAASSSIGLHAFKNPGEKYPFPDFYDNSNNTPEPPSADNMKLLHDFIACFERSCDIILIKSFIELEGKYIDLLSTLSDKTLVPVGPLVQDPMGHNEDPKTEQIINWLDKRAESTVVFVCFGSEYFLSNEELEEVAIGLEISMVNFIWAVRLIEGEKKGVLPEGFVQRVGDRGLVVEGWAPQARILGHSSTGGFVSHCGWSSIAESMKFGVPVIAMARHLDQPLNGKLAAEVGVGMEVVRDENGKYKREGIAEVIRKVVVEKSGEVMRRKARELSEKMKEKGEEEIDRAVEELVQICKKKKDAQ
modifications: misc_feature - GT29-11; Panax ginseng
In the case of B1, the “product formation from Rg1 and UDP-xylose (notoginsenoside R1)” value (“product formation” for short) is reported as “can catalyze the formation of Notoginsenoside RI”.

B2: GT29-5: Ginseng UDP-glycosyltransferase, 446 amino acids, SEQ ID NO: 14 (protein)
chain: MDNQKGRISIVMLPFLAHGHISPFFELAKHLSKRNCNIFLCSTPINLSSIKNRISDKDSSASIKLVELHLPSSPDLPPHYHTTNGLPSHLMVPLRNAFETAAPTFSEILKTLNPDLLIYDFNPSWAPEIASSHNIPAVCFIIGGAASFSMSLHSFKNPGEKYPFLDFDDNSNITPEPPSADNMKLLLDFMTCFERSCDIILIKSFRELEGKYIDLLSTLSDKTLVPVGPLVQDPMGHNEDPKTEQIINWLDKRAESTVVFVCFGSEYFLSNEELEEVAIGLEISMVNFIWAVRLIEGEKKGVLPEGFVQRVGDRGLVVEGWAPQARILGHSSTGGFVSHCGWSSIAESMKFGVPVIAMARHLDQPLNGKLAAEVGVGMEVVRDENGKYKREGIAEVIRKVVVEKSGEVIRRKARELSEKMKEIGEQLIDRAVEELVQICKKKKDEQ
modifications: misc_feature - GT29-5; Panax ginseng
For B2, the “product formation” value was “can catalyze the formation of Notoginsenoside RI”.

B3: GT29-9: Ginseng UDP-glycosyltransferase, 446 amino acids, SEQ ID NO: 18 (protein)
chain: MDNQKGRISIVMLPFLAHGHISPFFELAKHLSKRNCNIFLCSTPINLSSIKNRISDKDSSASIKLVELHLPSSPDLPPHYHTTNGLPSHLMVPLRNAFETAAPTFSEILKTLNPDLLIYDFNPSWAPEIASSHNIPAVCFIIGGAASFSMSLHSFKNPGEKYPFLDFDDNSNITPEPPSADNMKLLLDFMTCFERSCDIILIKSFRELEGKYFDFYSTLSDKTLVPVGPLVQDPMGHNEDPKTEQFINWLDKRAESTVVFVCFGSEYFLSNEELEEVAIGLEISMVNFIWAVRLIEGEKKGVLPEGFVQRVGDRGLVVEGWAPQARILGHSSTGGFVSHCGWSSIAESMKFGVPVIAMARHLDQPLNGKLAAEVGVGMEVVRDENGKYKREDIAGVIRKVVVEKSGEVIRRKARELSEKMKEIGEQLIDRAVEELVQICKKKKDEQ
modifications: misc_feature - GT29-9; Panax ginseng
In the case of B3, the “product formation” value is reported as “can catalyze the formation of Notoginsenoside RI”.

B4: GT29-7: Ginseng UDP-glycosyltransferase, 446 amino acids, SEQ ID NO: 16 (protein)
chain: MDNQKGRISIALLPFLAHGHISPFFELAKQLAKRNCNVFLCSTPINLSSIKNRVSDKDSSASIKLVELHLPSSPDLPPHYHTTNGLPSHLMIPLRNAFDTAGPTFSEILKTLNPDLLIYDFNPSWAPEIASSHNIPAVCFIIGGAASSSMSLHSFKNPGEKYPFLDFDDNSNITPEPPSADNMKLLINFMTCFERSCDIILIKSFRELEGKYFDFFSTLSDKTLVPVGPLVQDPMGHNEDPKTEQFINWLDKRAESTVVFVCFGSECFLSNEELEEVAIGLEISMVNFIWAVRLIEGEKKGVLPEGFVQRVGDRGLVVEEWAPQARILGHSSTGGFVSHCGWNSITESMKFGVPVIAMARHFDQPLNGKLAAEVGVGMEVVRDENGKYKREGIAEVIRKVVVEKSGEVIRRKARELSEKMKEKGEQEIDRVVEELVQICKKKKDEQ
modifications: misc_feature - GT29-7; Panax ginseng
For B4, the “product formation” value was “can catalyze the formation of Notoginsenoside RI”.
